In PMC10565641:

Columns and labels:
Myc-tagged LEF1 = Myc-tagged LEF1 (UniProt Q9UJU2); test: co-immunoprecipitation (anti-FLAG IP, immunoblot densitometry); conditions: HEK293T cells, transfected; densitometry mean of three independent experiments; parent: 1.0
Myc-tagged TCF7L2 = Myc-tagged TCF7L2 (UniProt Q9NQB0); test: as above; conditions: HEK293T cells, transfected; densitometry mean of three independent experiments; parent: 1.0
UniProt Q9NQB0, sequence (Q9NQB0 whole entry): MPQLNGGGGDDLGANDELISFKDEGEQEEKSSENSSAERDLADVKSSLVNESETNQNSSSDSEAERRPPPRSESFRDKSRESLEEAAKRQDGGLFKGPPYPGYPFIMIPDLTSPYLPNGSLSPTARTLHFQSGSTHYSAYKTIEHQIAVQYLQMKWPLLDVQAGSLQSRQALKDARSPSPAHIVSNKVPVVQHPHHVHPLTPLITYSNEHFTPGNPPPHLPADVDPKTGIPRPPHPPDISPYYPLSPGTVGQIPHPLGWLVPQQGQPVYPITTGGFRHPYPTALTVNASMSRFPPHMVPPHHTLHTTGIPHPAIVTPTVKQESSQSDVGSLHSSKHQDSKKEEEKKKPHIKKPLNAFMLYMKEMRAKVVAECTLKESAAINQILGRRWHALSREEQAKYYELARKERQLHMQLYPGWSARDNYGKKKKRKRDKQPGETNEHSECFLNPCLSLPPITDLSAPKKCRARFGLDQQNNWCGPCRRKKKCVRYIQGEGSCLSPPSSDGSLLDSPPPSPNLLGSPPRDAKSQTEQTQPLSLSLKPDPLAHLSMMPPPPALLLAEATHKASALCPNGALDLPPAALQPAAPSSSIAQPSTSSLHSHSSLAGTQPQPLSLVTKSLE

UniProt Q9UJU2, sequence (Q9UJU2 whole entry): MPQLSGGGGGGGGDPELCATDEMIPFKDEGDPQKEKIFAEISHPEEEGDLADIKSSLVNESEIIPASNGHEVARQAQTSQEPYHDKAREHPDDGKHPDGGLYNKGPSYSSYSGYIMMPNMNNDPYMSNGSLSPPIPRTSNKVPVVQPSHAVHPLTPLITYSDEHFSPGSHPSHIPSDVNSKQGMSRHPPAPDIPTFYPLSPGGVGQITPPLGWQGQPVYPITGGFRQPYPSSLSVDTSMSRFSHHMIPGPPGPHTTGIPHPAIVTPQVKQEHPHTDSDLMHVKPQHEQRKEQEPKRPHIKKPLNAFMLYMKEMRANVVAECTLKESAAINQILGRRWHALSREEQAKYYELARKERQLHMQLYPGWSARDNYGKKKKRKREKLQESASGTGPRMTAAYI

ratio to parent (Myc-tagged LEF1): 0.44 | ratio to parent (Myc-tagged TCF7L2): 0.17
Substance: FLAG-V5-tagged FBXW7α, wild type (from UniProt Q969H0) WD40 (three arginine residues within one WD40 repeat mutated; lane label WD)
